B1: CDC25B (parent)
chain: KSPIAPCSLDKRVILIFHCEFSSE
B2: TMEM106C (parent)
chain: YVTTNVSLIPPRSEQLVNFTGKAE

Variants of: B1
Test: protein stability index of a GFP-peptide fusion (GPS, HEK-293T) (PSI 1-6); higher = more stable
Settings: c terminus: a fixed tail appended
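Note: lentivirally expressed fusions sorted by FACS into six bins by GFP to DsRed ratio, PSI derived from sequencing read proportions per bin multiplied by bin number.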

Protein stability index: each site, then its substitutions
R12: Y 3.38 | I 3.03 | D 3.43 | F 5.41 | L 3.04 | G 2.23 | N 2.76 | K 3.98 | P 2.66 | S 4.14 | M 2.89 | H 2.79
P3: Q 3.1 | H 2.63 | A 2.25 | L 3.29 | T 2.17 | G 1.9 | M 3.46 | N 2.73 | I 2.38 | W 2.17
C7: P 2.65 | T 2.55 | R 3.39 | V 3.75 | I 3.17 | S 2.13 | Q 2.01 | K 2.56 | H 3.31 | G 2.4 | M 2.15 | L 3.92 | A 2.03 | N 2.54
D10: G 2.74 | V 2.67 | W 2.94 | C 2.23 | A 2.95 | T 3.32 | M 2.48 | I 2.12 | Y 1.66 | P 3.83 | H 2.05 | F 2.42 | S 2.26 | Q 1.71
I4: F 2.53 | N 2.64 | W 2.72 | Y 3.53 | P 2.2 | D 1.16 | M 4.09 | S 2.89 | K 3.59 | G 4.68 | H 1.94
P6: V 1.39 | W 3.61 | G 2.54 | Q 4.6 | C 2.97 | F 3.05 | R 1.89 | H 2.23 | Y 3.74
K1: L 1.86 | G 3.01 | F 2.7 | I 1.11 | S 3.48 | N 1.96 | P 3.88
K11: L 2.35 | F 2.69 | C 2.52 | I 3.79 | Q 2.16 | M 2.9 | P 3.23 | Y 2.32 | H 2.1 | V 4.34
S8: E 1.45 | C 3 | H 3.03 | W 1.81 | A 3.52 | T 4.2 | K 2.88 | G 3.16 | I 2.17 | F 2.12 | D 2.31 | V 2.5 | L 1 | M 2.28
V13: F 2.29 | A 3.2 | E 1.45 | C 1.21 | D 2.51
L9: R 3.58 | F 2.64 | K 2.39 | M 2.53 | N 2.78 | A 2.62 | T 2.22 | W 2.9 | I 4.08 | Q 2.42 | Y 3.94 | P 3.63 | C 2.46 | G 2.92 | D 2.66 | S 2.4 | V 2.37
A5: E 2.55 | F 2.93 | W 2.46 | T 2.85 | I 2.65 | S 2.48 | Y 3 | N 2.85 | Q 1.42 | D 2.57 | H 2.3 | M 1.72 | L 2.58
S2: I 1.68 | D 3.82 | Y 3.15 | E 3.4 | W 4.11 | F 3.02 | M 1.13 | A 2.37 | T 3.22

Variants of: B2
Test: as above
Settings: c terminus: a fixed tail appended

Protein stability index: each site, then its substitutions
E24: I 2.32 | T 2.75 | D 2.58 | Y 2.7 | L 2.08 | S 2.1 | R 1.48 | G 1.64 | K 1.88 | H 1.49 | Q 2.06 | M 2.05 | V 1.41 | F 2.81 | W 2.93 | A 2 | N 2.92 | C 2.32 | P 3.06
A23: Y 2.44 | V 2.3 | W 2.51
